Results reported in US11591582, “TCRα homing endonuclease variants” (2seventy bio, Inc.).

Biological target: T1, TCRα2.1 megaTAL (10.5 RVD) (synthetic)
T1 chain: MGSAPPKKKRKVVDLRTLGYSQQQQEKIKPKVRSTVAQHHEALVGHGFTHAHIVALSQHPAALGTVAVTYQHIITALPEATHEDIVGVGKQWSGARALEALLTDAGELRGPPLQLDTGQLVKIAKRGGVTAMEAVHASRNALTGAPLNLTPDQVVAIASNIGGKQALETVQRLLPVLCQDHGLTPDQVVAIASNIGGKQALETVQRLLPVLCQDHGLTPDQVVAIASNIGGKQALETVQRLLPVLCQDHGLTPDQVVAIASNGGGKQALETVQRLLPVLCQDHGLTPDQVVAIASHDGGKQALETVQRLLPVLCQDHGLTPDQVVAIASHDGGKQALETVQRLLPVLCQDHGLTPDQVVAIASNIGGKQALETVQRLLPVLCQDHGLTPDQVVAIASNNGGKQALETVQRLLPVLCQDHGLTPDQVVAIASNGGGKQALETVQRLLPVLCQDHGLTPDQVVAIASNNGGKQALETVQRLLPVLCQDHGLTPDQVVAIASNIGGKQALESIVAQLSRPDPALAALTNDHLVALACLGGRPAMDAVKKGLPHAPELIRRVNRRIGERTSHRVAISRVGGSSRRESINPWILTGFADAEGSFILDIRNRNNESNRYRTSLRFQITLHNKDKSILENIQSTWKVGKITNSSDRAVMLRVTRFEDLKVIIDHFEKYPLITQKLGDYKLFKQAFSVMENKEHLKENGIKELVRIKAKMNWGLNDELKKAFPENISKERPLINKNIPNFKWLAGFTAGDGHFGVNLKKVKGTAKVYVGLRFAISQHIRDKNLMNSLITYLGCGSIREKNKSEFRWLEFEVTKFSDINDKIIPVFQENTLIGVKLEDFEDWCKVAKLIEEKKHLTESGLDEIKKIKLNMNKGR
Experiment: cell_activity; primary human T cells, CD3 knockdown
Details: tags: TALE fusion
From the text: A single amino acid substitution, E178D, that increased catalytic activity in another I-OnuI variant was inserted at the active site of the TCRα2.0 megaTAL to generate the TCRα2.1 megaTAL (SEQ ID NO: 8). In vitro transcribed mRNA encoding the TCRα2.1 megaTAL (e.g., SEQ ID NO: 15) was electroporated into primary human T cells. The TCRα2.1 megaTAL increased CD3 knockdown 10-fold compared to the TCRα2.0 megaTAL. FIG. 5.

B1: TCRα megaTAL target site (dsDNA)
DNA 1: AAATCCAGTGACAAGTCTGTCTGCCTATTCACCGATTTT
DNA 2: AAAATCGGTGAATAGGCAGACAGACTTGTCACTGGATTT
With B1 the activity was 10 fold vs TCRα2.0 megaTAL.
